Experimental findings from patent US20190270826A1 (Janssen / Centocor, published 2019) are described below.

Changes are numbered by the printed parent chain. Names and notes keep the numbering of the source.

A word on the Kd: it is a measure of binding affinity in units of concentration. What is called koff is the first-order rate constant of dissociation. Broadly, the kon is the second-order rate constant of association.

Test [1] concerns the target T1, recombinant cyno IL1RAP ECD (cynomolgus monkey, UniProt P59822 21-367 (rhesus entry)).
T1 construct: also called rcynoIL1RAP
T1 sequence: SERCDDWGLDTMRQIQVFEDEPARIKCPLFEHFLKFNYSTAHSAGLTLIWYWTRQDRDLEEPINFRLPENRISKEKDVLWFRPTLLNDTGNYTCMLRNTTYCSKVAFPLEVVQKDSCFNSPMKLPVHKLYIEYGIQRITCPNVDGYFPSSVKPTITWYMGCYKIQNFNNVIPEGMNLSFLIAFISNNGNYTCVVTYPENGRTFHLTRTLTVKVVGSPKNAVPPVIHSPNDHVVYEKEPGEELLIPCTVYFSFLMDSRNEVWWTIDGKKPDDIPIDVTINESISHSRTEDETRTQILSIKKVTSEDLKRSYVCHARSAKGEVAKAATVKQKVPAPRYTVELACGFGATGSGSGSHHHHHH
Put plainly: SPR. On the technique in general: SPR reads the build-up and loss of mass on a sensor chip optically.

In test [2] the target is T2, recombinant human IL1RAP ECD (human, UniProt Q9NPH3 21-367).
T2 construct: His-tagged; also called hIL1RAP-ECD; rhuIL1RAP
T2 sequence: T1 sequence with F183L, P273T, T326K
The experiment in a line: SPR.

Test [3] has as its target T3, mouse IL1RAP ECD displayed on HEK-293F cells (pDisplay) (mouse, UniProt Q61730 21-367).
T3 sequence: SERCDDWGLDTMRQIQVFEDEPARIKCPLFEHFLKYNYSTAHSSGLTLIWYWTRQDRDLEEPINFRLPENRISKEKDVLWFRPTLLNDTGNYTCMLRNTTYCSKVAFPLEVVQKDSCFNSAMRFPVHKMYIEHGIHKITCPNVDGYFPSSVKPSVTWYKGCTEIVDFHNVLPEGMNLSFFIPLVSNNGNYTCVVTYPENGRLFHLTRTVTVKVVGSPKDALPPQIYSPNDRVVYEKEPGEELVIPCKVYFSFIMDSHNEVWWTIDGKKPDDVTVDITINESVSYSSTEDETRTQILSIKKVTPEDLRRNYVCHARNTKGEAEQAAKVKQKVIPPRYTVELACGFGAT
The experiment in a line: Murine Binder, summary.

Test [4] has as its target T2, recombinant human IL1RAP ECD. Put plainly: SPR; human KD over cyno KD.
Test [5] deals with T1, recombinant cyno IL1RAP ECD. Put plainly: SPR. This is another data set of the same source.
Test [6] addresses T2, recombinant human IL1RAP ECD. Put plainly: SPR. This is another data set of the same source.
The target of test [7] is T1, recombinant cyno IL1RAP ECD. The experiment in a line: SPR, summary.
The target of test [8] is T2, recombinant human IL1RAP ECD. Put plainly: SPR, summary.
Test [9] has as its target T4, human IL1RAP on cells (endogenous) (human, UniProt Q9NPH3 21-570).
T4 sequence (looked up): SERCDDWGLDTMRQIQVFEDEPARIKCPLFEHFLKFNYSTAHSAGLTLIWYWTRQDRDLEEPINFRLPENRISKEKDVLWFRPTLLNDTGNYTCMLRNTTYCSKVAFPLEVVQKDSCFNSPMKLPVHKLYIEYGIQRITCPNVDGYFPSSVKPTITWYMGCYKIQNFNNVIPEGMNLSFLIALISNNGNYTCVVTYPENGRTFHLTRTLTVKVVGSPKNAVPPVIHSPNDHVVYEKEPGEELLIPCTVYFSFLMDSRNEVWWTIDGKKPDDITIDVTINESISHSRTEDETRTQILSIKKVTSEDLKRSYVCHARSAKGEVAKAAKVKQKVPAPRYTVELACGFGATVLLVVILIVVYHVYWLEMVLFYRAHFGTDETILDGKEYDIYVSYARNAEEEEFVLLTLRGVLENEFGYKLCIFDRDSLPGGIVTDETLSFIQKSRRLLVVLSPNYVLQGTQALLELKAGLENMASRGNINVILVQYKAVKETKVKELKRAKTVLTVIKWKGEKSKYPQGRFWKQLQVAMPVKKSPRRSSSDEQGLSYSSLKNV
Put plainly: cell-based or functional assay.

Test [10] has as its target T5, cyno IL1RAP ECD displayed on HEK-293F cells (pDisplay) (cynomolgus monkey, UniProt P59822 21-367 (rhesus entry)).
T5 sequence: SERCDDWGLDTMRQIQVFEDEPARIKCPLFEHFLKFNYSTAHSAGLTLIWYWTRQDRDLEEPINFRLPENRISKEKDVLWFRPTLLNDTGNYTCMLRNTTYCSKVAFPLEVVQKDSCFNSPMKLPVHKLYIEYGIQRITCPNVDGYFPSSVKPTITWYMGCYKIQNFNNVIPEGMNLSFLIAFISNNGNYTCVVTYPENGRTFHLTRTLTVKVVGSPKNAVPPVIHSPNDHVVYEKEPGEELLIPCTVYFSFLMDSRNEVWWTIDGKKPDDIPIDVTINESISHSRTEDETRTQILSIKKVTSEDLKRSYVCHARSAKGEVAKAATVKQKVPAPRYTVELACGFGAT
Put plainly: HEK-293F cells (MSD).

Test [11] concerns the target T1, recombinant cyno IL1RAP ECD. Put plainly: recombinant protein.
Test [12] has as its target T2, recombinant human IL1RAP ECD. Put plainly: SPR, summary. This is another data set of the same source.
Test [13] has the same target. The experiment in a line: SPR; KD against parent IAPB54.
The target is the same in test [14]. Put plainly: SPR (ProteOn).

B1: IC3B7 (bispecific antibody, human IgG4 S228P, kappa, lambda, F234A L235A)
heavy 1: EVQLVESGGGLVQPGGSLKLSCAASGFTFNTYAMNWVRQASGKGLEWVGRIRSKYNAYATYYAASVKGRFTISRDDSKNTAYLQMNSLKTEDTAVYYCTRHGNFGNSYVSWFAYWGQGTLVTVSSASTKGPSVFPLAPCSRSTSESTAALGCLVKDYFPEPVTVSWNSGALTSGVHTFPAVLQSSGLYSLSSVVTVPSSSLGTKTYTCNVDHKPSNTKVDKRVESKYGPPCPPCPAPEAAGGPSVFLFPPKPKDTLMISRTPEVTCVVVDVSQEDPEVQFNWYVDGVEVHNAKTKPREEQFNSTYRVVSVLTVLHQDWLNGKEYKCKVSNKGLPSSIEKTISKAKGQPREPQVYTLPPSQEEMTKNQVSLTCLVKGFYPSDIAVEWESNGQPENNYKTTPPVLDSDGSFLLYSKLTVDKSRWQEGNVFSCSVMHEALHNHYTQKSLSLSLGK
light 1: QAVVTQEPSLTVSPGGTVTLTCRSSTGAVTTSNYANWVQQKPGQAPRGLIGGTNKRAPGTPARFSGSLLGGKAALTLSGAQPEDEAEYYCALWYSNLWVFGGGTKLTVLGQPKAAPSVTLFPPSSEELQANKATLVCLISDFYPGAVTVAWKADSSPVKAGVETTTPSKQSNNKYAASSYLSLTPEQWKSHRSYSCQVTHEGSTVEKTVAPTECS
heavy 2: not shown
light 2: not shown
notes: IgG4-PAA, Fab arm exchange; also called IAPB17 x CD3B220
Consider B1, for which the Kd in [1] stood at 4.74 nM; in [2], 6.1 nM; in test [5], 4.74 nM; in [6], 6.1 nM; in test [7], 4.74 nM; in test [8] it was 6.1 nM. Also, the binding result in test [3] is “binds”. Besides, the “Hu/Cyno KD Ratio” value in [4] was found to be 1.3. Besides, the koff in test [5] amounted to 0.00583 s⁻¹; in test [6], 0.00659 s⁻¹. The figures for the kon in test [5] and in test [6] were 1.23e+06 M⁻¹ s⁻¹ and 1.08e+06 M⁻¹ s⁻¹, respectively. Besides, the “EC50, T-cell mediated cytotoxicity” value in test [9] was 3.4 nM.

B2: IAPB54 (antibody, human IgG4 S228P, lambda, F234A L235A, V domains shown)
VH: QVQLVQSGSELKKPGASVKVSCKASGYTFNTYAMNWVRQAPGQGLEWMGWINTNTGNPTYAQGFTGRFVFSLDTSVSTAYLQISSLKAEDTAVYYCARRYFDWLLGAFDIWGQGTMVTVSS
VL: QSALTQPRSVSGSPGHSVTISCTGTSSDVGDYNYVSWYQQRPGKVPKLLIYDVSKRPSGVPDRFSGSKSGNTASLTISGLQAEDEAIYFCCSYAGNYNVVFGGGTKLTVLG
notes: IgG4-PAA; also called 17B04 with human IgG4-PAA
Consider B2, for which the binding result in test [10] was “binds”. Moreover, the binding result in test [11] was “binds”. The Kd in [12] came to 0.58 nM. For the same molecule, the “Fold Different from parent” value in [13] was determined as 1 fold. In test [14], the Kd stood at 0.0775 nM, the koff came to 7.48e-05 s⁻¹ and the association rate constant (kon) is 965000 M⁻¹ s⁻¹.

B3: IAPB64 (antibody, human IgG4 S228P, lambda, F234A L235A, V domains shown)
VH: B2 VH
VL: B2 VL with C91S
notes: IgG4-PAA; whole chains; also called IAPB54-LC-C91S
With B3, the Kd in test [12] stood at 0.38 nM. Besides, the “Fold Different from parent” value in test [13] is 4.7 fold. In test [14], the Kd is 0.367 nM, the koff was 0.000234 s⁻¹ and the on-rate (kon) was determined as 638000 M⁻¹ s⁻¹.
